Molecular target: monoacetylated histone H3 peptide …(AcK)APRKQL, acetylated on lysine-14
Experiment: cell-based or functional assay

Sequence of monoacetylated histone H3 peptide …(AcK)APRKQL, acetylated on lysine-14 (peptide, as listed by the source): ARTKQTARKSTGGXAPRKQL

Row | Km, deacetylation of acetylated H3 peptide, charcoal-binding assay [µM] | V/K, deacetylation of acetylated H3 peptide, charcoal-binding assay [M⁻¹ s⁻¹] | Substance
1 | 54.2 | 3930 | recombinant human SIRT2 (6xHis-tagged, with factor Xa cleavage site, purified from E. coli) (from UniProt Q8IXJ6 1-389) (enzyme)
2 | 0.28 | 718000 | recombinant yeast Hst2p (from UniProt P53686 1-357) (enzyme)

— US20040028607A1
